A short description of the series: GLI2 level in Daoy cells. Conditions: glycan lost; control: DMSO.

B1: human GLI2: OSMI-1 (protein)
parent chain: METSASATASEKQEAKSGILEAAGFPDPGKKASPLVVAAAAAAAVAAQGVPQHLLPPFHAPLPIDMRHQEGRYHYEPHSVHGVHGPPALSGSPVISDISLIRLSPHPAGPGESPFNAPHPYVNPHMEHYLRSVHSSPTLSMISAARGLSPADVAQEHLKERGLFGLPAPGTTPSDYYHQMTLVAGHPAPYGDLLMQSGGAASAPHLHDYLNPVDVSRFSSPRVTPRLSRKRALSISPLSDASLDLQRMIRTSPNSLVAYINNSRSSSAASGSYGHLSAGALSPAFTFPHPINPVAYQQILSQQRGLGSAFGHTPPLIQPSPTFLAQQPMALTSINATPTQLSSSSNCLSDTNQNKQSSESAVSSTVNPVAIHKRSKVKTEPEGLRPASPLALTQGQVSGHGSCGCALPLSQEQLADLKEDLDRDDCKQEAEVVIYETNCHWEDCTKEYDTQEQLVHHINNEHIHGEKKEFVCRWQACTREQKPFKAQYMLVVHMRRHTGEKPHKCTFEGCSKAYSRLENLKTHLRSHTGEKPYVCEHEGCNKAFSNASDRAKHQNRTHSNEKPYICKIPGCTKRYTDPSSLRKHVKTVHGPDAHVTKKQRNDVHLRTPLLKENGDSEAGTEPGGPESTEASSTSQAVEDCLHVRAIKTESSGLCQSSPGAQSSCSSEPSPLGSAPNNDSGVEMPGTGPGSLGDLTALDDTPPGADTSALAAPSAGGLQLRKHMTTMHRFEQLKKEKLKSLKDSCSWAGPTPHTRNTKLPPLPGSGSILENFSGSGGGGPAGLLPNPRLSELSASEVTMLSQLQERRDSSTSTVSSAYTVSRRSSGISPYFSSRRSSEASPLGAGRPHNASSADSYDPISTDASRRSSEASQCSGGSGLLNLTPAQQYSLRAKYAAATGGPPPTPLPGLERMSLRTRLALLDAPERTLPAGCPRPLGPRRGSDGPTYGHGHAGAAPAFPHEAPGGGARRASDPVRRPDALSLPRVQRFHSTHNVNPGPLPPCADRRGLRLQSHPSTDGGLARGAYSPRPPSISENVAMEAVAAGVDGAGPEADLGLPEDDLVLPDDVVQYIKAHASGALDEGTGQVYPTESTGFSDNPRLPSPGLHGQRRMVAADSNVGPSAPMLGGCQLGFGAPSSLNKNNMPVQWNEVSSGTVDALASQVKPPPFPQGNLAVVQQKPAFGQYPGYSPQGLQASPGGLDSTQPHLQPRSGAPSQGIPRVNYMQQLRQPVAGSQCPGMTTTMSPHACYGQVHPQLSPSTISGALNQFPQSCSNMPAKPGHLGHPQQTEVAPDPTTMGNRHRELGVPDSALAGVPPPHPVQSYPQQSHHLAASMSQEGYHQVPSLLPARQPGFMEPQTGPMGVATAGFGLVQPRPPLEPSPTGRHRGVRAVQQQLAYARATGHAMAAMPSSQETAEAVPKGAMGNMGSVPPQPPPQDAGGAPDHSMLYYYGQIHMYEQDGGLENLGSCQVMRSQPPQPQACQDSIQPQPLPSPGVNQVSSTVDSQLLEAPQIDFDAIMDDGDHSSLFSGALSPSLLHSLSQNSSRLTTPRNSLTLPSIPAGISNMAVGDMSSMLTSLAEESKFLNMMT
In the case of B1, the expression_or_secretion result is given as “decreases”.

(Values after paper PMC9407465.)
